Experimental data from patent US20240218024A1, “METHODS AND COMPOSITIONS FOR TREATMENT OF VIRAL INFECTION” (TECHNION RESEARCH & DEVELOPMENT FOUNDATION LIMITED, priority 2021, published 2024).

Experiments:
[1] = In vitro slncRNA and slncRNA-protein granule formation (fluorescence microscopy); format: physicochemical
[2] = Temporal tracking of individual SRNP granules in vitro (burst analysis); format: physicochemical; conditions: SRNP granules with tdPCP-mCherry, 60 minutes tracking
Description: To test whether the synthetic granules display this characteristic, we tracked the fluorescence intensity of each granule in a given field-of-view for 60 minutes. The brightness of each granule was analyzed at every time point using a customized analysis algorithm (see Supplementary Methods). The resulting signals are either decreasing or increasing in overall intensity, and dispersed within them are sharp variations in brightness, that are also either increasing or decreasing. Next, we employed a statistical threshold which flagged these signal variation events, or “signal bursts”, whose amplitude was determined to not be part of the underlying signal distribution (p-value<1e-3) (See Supplementary Methods for definitions of bursts, algorithm details, and relevant numerical controls). The events were classified as either increasing bursts (green), decreasing bursts (red), or non-classified segments (blue), which are segments where molecular movement cannot be discerned from the noise (FIG. 8A). For each detected burst, its amplitude (A intensity) and duration (A time) were measured, in addition to measuring the time between bursts and the order of their appearance. In FIG. 8B the distributions of amplitudes for all three event types were plotted, obtained from ˜156 signal traces, each gathered from a different granule composed of PCP-14×/MCP-15× and tdPCP-mCherry. We observe a bias towards negative burst or shedding events. Assuming an interpretation that fluorescent burst events correspond to insertion and shedding events of slncRNA-CP complexes into or out of the synthetic granules, the amplitude bias towards negative events is consistent with RNA degradation and lack of transcription within the in vitro suspension, leading to a net shedding of slncRNA molecules out of the granules over time.
The tracking data, (x,y,t coordinates of the bright spots centroids), together with the raw microscopy images were fed to a custom built Matlab (The Mathworks, Natick, MA) script designed to normalize the relevant spot data. Normalization was carried out as follows: for each bright spot, a 14-pixel wide sub-frame was extracted from the field of view, with the spot at its center. Each pixel in the sub-frame was classified to one of three categories according to its intensity value. […]
We assume the total fluorescence is comprised of three distinct signal processes: RNP granule fluorescence, background fluorescence and noise. We further assume that background fluorescence is slowly changing, as compared with granule fluorescence which depends on the dynamic and frequent insertion and shedding events occurring in the droplet. […] To identify such shifts in the base-line fluorescence intensity, we use a moving-average filter of 13 points (i.e., 2 minutes) to smooth the data. […]

BL21-DE3 E. coli cells = test: slncRNA and tdPCP-mCherry expression in bacteria (puncta, burst analysis, flow cytometry); format: cell-based; conditions: slncRNA co-expressed with tdPCP-mCherry, overnight induction
[3] = SRNP granules with tdPCP-mCherry

B1: PCP-14×/MCP-15×: class II slncRNA with fourteen PCP binding sites spaced by hairpins that do not bind PCP (SEQ ID NO: 28) (nucleic acid)
chain: GAGAAACGTTTCGACATTATATGGAATGCGAAAGTGGAACGTAATGGACATGAAGACGATTACGCTTCACACGGAGGATGCGGGAAACATGAAGATCACCCATGTTCGCTTAACCATGGATAGGGATCACCCATGTTGCGGTGGTGCGTCAACCAGAGATTTCATATGGGAAACTCTGGGACACGCTGTATTTATACATGAGGATCACCATGTGTGCTTAAATATGGGTAAGTTGACCATTAGGCAACTGTAAGATGCTCCGGTTAATTCCAGTTTATATGGAAACGGAATTGATGTACCGTTGAGCAAGAACACGATTACGGTTCTTCGATTAGATATGGTTTAAACGACAATATATGGATTGCGTTTTGGGGCACGCCGTCTGGAGAAGACCATTAGGCTTCTTTACTGCGACCGCAATAAAAGGAGATTATATGAAATCCCTTTGCGCGCAACCGGGTAGAAGATCACCATTAGGGATCTGTAACTCACGGCGCTATTACGAGTCAATATGGTGACCGTAAAGCTAGGGCATGTGCCAGAAGAGCATTAGCCTTCTCCTTGGTGGGGAAGCGATAAGCACATTATAAGGAATGGCTTAAAGTGGTGCGGCGGGGGACTTGACCATTAGGCAAGTGTGCTAGACCCTGGTCTTTTCGAGAAAATATGGTTTCCGAAAGAACTATACGAAGTGACATGCGAGGATTACCCGCATATGGTGCAAATGGGAGAATTGGAGTAAATATGGTTACCCAATAGGCTAGAGCATGACGGCAGTGAGAATTATCCACTGGTTAGCGGGTTACCGAGATTGCACATTATATGGAATGGCAATTGATTCATGCCGGTCGTTTGTGAGGAGTACCCACAAAATGGGAGGGTGCTATATAACCAGGTTATATGCAACCGGTTAGGCCGTTGTGTTAGTTTAGTTCAGCATTAGCGAACTGTGCAAGACCCGGTGGCTAAGGAGTTTATATGGAAACCCTTAGCCCTCGAGCATGCTAACATGAGGATTACCCATGTGATGGGTTTGAAACGTGCAATTATTTGATATGGCAAAAATTGGGTAGGGCATGGCTGCAGCGTGAGAATTATCCACGCTAGGCTAGAGCATGGCGGTATTGAGTTCGGGTTTGAGATGACCATTAGGCATCTGTGCTAGAGCATGCGAAAACGACATAATATGGTATGCGTTTTGGGGTGCTAGTATACCACATGATGAGCACACATGTATGGGTGGGAGGTAGAGGGATTCTCGCGAGAAGA
[1]; [3]
  median mCherry fluorescence of SRNP granules, brighter than PCP-4×/MCP-4× granules: ~3 times
  median mCherry fluorescence of SRNP granules, brighter than PCP-8× granules: > 2 fold
[1]; SRNP granules with tdPCP-mCherry, both components varied over two orders of magnitude
  slncRNA and protein concentrations at which puncta like structures were detected: ≥ 100 ng/µL
[1]; slncRNA-only condensates
  Poisson parameter λ best fit of condensate fluorescence intensity distribution: 3-5
[2]
  ratio between mean granule fluorescence and mean burst amplitude, red channel (protein): approximately equal to that of the green channel

B2: PCP-8×: class I slncRNA with eight PCP binding hairpins (SEQ ID NO: 27) (nucleic acid)
chain: GAGAAACGTTTCGACATTATATGGAATGCGAAACACGGAGGATGCGGGAAACATGAAGATCACCCATGTTCGCTTAACCATGGATAGGGATCACCCATGTTGCGGTGGTGCGTCAACCAGAGATTTCATATGGGAAACTCTGGGACACGCTGTATTTATACATGAGGATCACCATGTGTGCTTAAATATGGGTAATTCCAGTTTATATGGAAACGGAATTAGGCTAGAGCATGGCGGTATTGAGTTCGGGTTTGAAACGACAATATATGGATTGCGTTTTGGGGCACGCCGTCTGGAAAGGAGATTATATGAAATCCCTTTGCGCGCAACCGGGTAGATACGAGTCAATATGGTGACCGTACCTTGGTGGGGAAGCGATAAGCACATTATAAGGAATGGCTTAGTGCTAGACCCTGGTCTTTTCGAGAAAATATGGTTTCCGAAAATGGGTGGGAGGTAGAGGGATTCTCGCGAGAAGAA
[2]
  ratio between mean granule fluorescence and mean burst amplitude, red channel (protein): ~2

B3: PCP-3×/MCP-3×: class II slncRNA with three PCP binding sites spaced by non-PCP hairpins (SEQ ID NO: 25) (nucleic acid)
chain: GAGAAACGTTTCGACATTATATGGAATGCGAAAGTGGAACGTAATGGACATGAAGACGATTACGCTTCACACGGAGGATGCGGGAAACATGAAGATCACCCACGCTTAACCATGGATAGGGATCACCCATGTTGCGGTGGTGCGTCAACCAGAGATTTCATATGGGAAACTCTGGGACACGCTGTATTTATACATGAGGATCACCATGTGTGCTTAAATATGGGTAAGTTGACCATTAGGCAACTGTAAGATGCTCCGGTTAATTCCAGTTTATATGGAAACGGAATTGATGTACCGTTGAGCAAGAACACGATTACGGTTCTTCGATTAGATATGGGGTGGGAGGTAGAGGGATTCTCGCGAGAAGA
[2]
  ratio between mean granule fluorescence and mean burst amplitude, red channel (protein): approximately equal to that of the green channel

B4: PCP-4×/MCP-4×: class II slncRNA with four PCP binding sites spaced by non-PCP hairpins (SEQ ID NO: 26) (nucleic acid)
chain: GAGAAACGTTTCGACATTATATGGAATGCGAAAGTGGAACGTAATGGACATGAAGACGATTACGCTTCACACGGAGGATGCGGGAAACATGAAGATCACCCATGTTCGCTTAACCATGGATAGGGATCACCCATGTTGCGGTGGTGCGTCAACCAGAGATTTCATATGGGAAACTCTGGGACACGCTGTATTTATACATGAGGATCACCATGTGTGCTTAAATATGGGTAAGTTGACCATTAGGCAACTGTAAGATGCTCCGGTTAATTCCAGTTTATATGGAAACGGAATTGATGTACCGTTGAGCAAGAACACGATTACGGTTCTTCGATTAGATATGGTTTAAACGACAATATATGGATTGCGTTTTGGGGCACGCCGTCTGGAGAAGACCATTAGGCTTCTTTACTGCGATGGGTGGGAGGTAGAGGGATTCTCGCGAGAAGAA
[2]
  ratio between mean granule fluorescence and mean burst amplitude, red channel (protein): approximately equal to that of the green channel

B5: PCP-4×/QCP-5×: class II slncRNA, four native PCP binding sites and five native QB coat protein hairpins (SEQ ID NO: 29) (nucleic acid)
chain: GAGAAACCTAGGCGATTATGACGTTATTCTACTTTGATTGTGATGCATGTCTAAGACAGCATCGCCTGCTGGTCGTGACTAAGGAGTTTATATGGAAACCCTTACGAGACAATGCTACCTTACCGGTCGGGCCCACTTGTTTTTACCCATGATGCATGTCTAAGACAGCATCGCCTGCTGGTCGTGACTAAGGAGTTTATATGGAAACCCTTAGAAACAGCCGTCGCCTTGAAGCCGAGAACAATGCATGTCTAAGACAGCATATGGATTGCCTGTCTGTTAAGGAGTTTATATGGAAACCCTTACATCAGGCTTCGCAGTATGCAACGCTTGCGATGCATGTCTAAGACAGCATTTCACCGCTTTCCTAAGTAAGGAGTTTATATGGAAACCCTTAGTACTAACTCGCAGATGCATGTCTAAGACAGCATCAGAAACGTCACGTCCTGGCTGTCGA
BL21-DE3 E. coli cells
  puncta formation in cells: formation of bright puncta at the cell poles
